From the supplement of paper PMC9112550, “Optimization of the antimicrobial peptide Bac7 by deep mutational scanning” (BMC Biology, 2022)

Tested on: Escherichia coli TOP10
Experiment: shrunken log2 fold change of peptide-encoding DNA abundance (4.5 h post-induction vs induction); higher = less antimicrobial activity (less host growth inhibition)
Conditions: time post-induction: 4.5 h; library: site-saturation at positions 5, 18, 19, 20
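Further: peptides expressed intracellularly from a pBAD plasmid library in pooled LB shake-flask culture, induced with 0.3% L-arabinose, DNA abundance read by NGS, three biological replicates, DESeq2 with apeglm shrinkage.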

| Sequence | shrunken log2 fold change |
| --- | --- |
| RRIRYRPPRLPRPRPRPMAYPRP | -0.0189 |
| RRIRYRPPRLPRPRPRPMDKPRP | -0.432 |
| RRIRYRPPRLPRPRPRPMEPPRP | -0.0132 |
| RRIRYRPPRLPRPRPRPMHFPRP | -0.00783 |
| RRIRYRPPRLPRPRPRPMICPRP | -0.0731 |
| RRIRYRPPRLPRPRPRPMILPRP | -0.287 |
| RRIRYRPPRLPRPRPRPMKDPRP | -0.317 |
| RRIRYRPPRLPRPRPRPMKIPRP | -0.0574 |
| RRIRYRPPRLPRPRPRPMKKPRP | 0.0048 |
| RRIRYRPPRLPRPRPRPMLIPRP | -0.767 |
| RRIRYRPPRLPRPRPRPMMHPRP | -0.626 |
| RRIRYRPPRLPRPRPRPMPIPRP | -0.16 |
| RRIRYRPPRLPRPRPRPMRFPRP | 0.0781 |
| RRIRYRPPRLPRPRPRPMRSPRP | -0.0201 |
| RRIRYRPPRLPRPRPRPMVWPRP | -0.0211 |
| RRIRYRPPRLPRPRPRPNANPRP | -2 |
| RRIRYRPPRLPRPRPRPNAWPRP | -0.165 |
| RRIRYRPPRLPRPRPRPNCYPRP | -0.0166 |
| RRIRYRPPRLPRPRPRPNDIPRP | -0.299 |
| RRIRYRPPRLPRPRPRPNDMPRP | -1.16 |
| RRIRYRPPRLPRPRPRPNDNPRP | -0.635 |
| RRIRYRPPRLPRPRPRPNEGPRP | -0.363 |
| RRIRYRPPRLPRPRPRPNFAPRP | 0.137 |
| RRIRYRPPRLPRPRPRPNFKPRP | 0.633 |
| RRIRYRPPRLPRPRPRPNFYPRP | -0.689 |

| Sequence | shrunken log2 fold change |
| --- | --- |
| RRIRYRPPRLPRPRPRPNGCPRP | -0.000687 |
| RRIRYRPPRLPRPRPRPNGEPRP | -0.0103 |
| RRIRYRPPRLPRPRPRPNGQPRP | -0.0885 |
| RRIRYRPPRLPRPRPRPNHTPRP | -0.259 |
| RRIRYRPPRLPRPRPRPNKRPRP | -0.75 |
| RRIRYRPPRLPRPRPRPNLCPRP | -1.35 |
| RRIRYRPPRLPRPRPRPNLHPRP | -0.821 |
| RRIRYRPPRLPRPRPRPNMQPRP | -0.594 |
| RRIRYRPPRLPRPRPRPNMYPRP | -0.411 |
| RRIRYRPPRLPRPRPRPNNGPRP | -0.156 |
| RRIRYRPPRLPRPRPRPNNLPRP | -0.582 |
| RRIRYRPPRLPRPRPRPNNSPRP | -0.52 |
| RRIRYRPPRLPRPRPRPNQDPRP | -0.406 |
| RRIRYRPPRLPRPRPRPNQQPRP | -0.0105 |
| RRIRYRPPRLPRPRPRPNRPPRP | 0.000655 |
| RRIRYRPPRLPRPRPRPNTLPRP | -0.704 |
| RRIRYRPPRLPRPRPRPNVFPRP | 0.0662 |
| RRIRYRPPRLPRPRPRPNVGPRP | -0.00664 |
| RRIRYRPPRLPRPRPRPPCGPRP | -0.406 |
| RRIRYRPPRLPRPRPRPPCLPRP | -0.288 |
| RRIRYRPPRLPRPRPRPPCMPRP | -0.315 |
| RRIRYRPPRLPRPRPRPPCQPRP | -0.212 |
| RRIRYRPPRLPRPRPRPPETPRP | -0.0226 |
| RRIRYRPPRLPRPRPRPPGCPRP | 0.334 |
| RRIRYRPPRLPRPRPRPPGDPRP | 0.152 |

| Sequence | shrunken log2 fold change |
| --- | --- |
| RRIRYRPPRLPRPRPRPPGNPRP | -0.0342 |
| RRIRYRPPRLPRPRPRPPHDPRP | -0.383 |
| RRIRYRPPRLPRPRPRPPHEPRP | -0.125 |
| RRIRYRPPRLPRPRPRPPHLPRP | -0.52 |
| RRIRYRPPRLPRPRPRPPHQPRP | 0.378 |
| RRIRYRPPRLPRPRPRPPIAPRP | 0.00572 |
| RRIRYRPPRLPRPRPRPPKRPRP | -0.121 |
| RRIRYRPPRLPRPRPRPPLDPRP | 0.443 |
| RRIRYRPPRLPRPRPRPPNRPRP | -0.0643 |
| RRIRYRPPRLPRPRPRPPPKPRP | 1.24 |
| RRIRYRPPRLPRPRPRPPQCPRP | -0.32 |
| RRIRYRPPRLPRPRPRPPSKPRP | -0.409 |
| RRIRYRPPRLPRPRPRPPSWPRP | 0.133 |
| RRIRYRPPRLPRPRPRPPTLPRP | -0.274 |
| RRIRYRPPRLPRPRPRPPYGPRP | -0.54 |
| RRIRYRPPRLPRPRPRPQANPRP | -0.694 |
| RRIRYRPPRLPRPRPRPQAPPRP | -0.0309 |
| RRIRYRPPRLPRPRPRPQCPPRP | -0.15 |
| RRIRYRPPRLPRPRPRPQCWPRP | -0.321 |
| RRIRYRPPRLPRPRPRPQDFPRP | -0.481 |
| RRIRYRPPRLPRPRPRPQGLPRP | 0.0179 |
| RRIRYRPPRLPRPRPRPQHDPRP | -1.4 |
| RRIRYRPPRLPRPRPRPQIMPRP | -0.705 |
| RRIRYRPPRLPRPRPRPQIYPRP | -0.132 |
| RRIRYRPPRLPRPRPRPQNWPRP | -0.611 |

| Sequence | shrunken log2 fold change |
| --- | --- |
| RRIRYRPPRLPRPRPRPQPDPRP | -0.0504 |
| RRIRYRPPRLPRPRPRPQPKPRP | -0.0232 |
| RRIRYRPPRLPRPRPRPQQGPRP | -0.34 |
| RRIRYRPPRLPRPRPRPQQNPRP | -0.421 |
| RRIRYRPPRLPRPRPRPQQQPRP | 0.00548 |
| RRIRYRPPRLPRPRPRPQQSPRP | -0.454 |
| RRIRYRPPRLPRPRPRPQRPPRP | 0.376 |
| RRIRYRPPRLPRPRPRPQSRPRP | -0.17 |
| RRIRYRPPRLPRPRPRPQTLPRP | -0.088 |
| RRIRYRPPRLPRPRPRPQTYPRP | -0.755 |
| RRIRYRPPRLPRPRPRPQWAPRP | -0.00681 |
| RRIRYRPPRLPRPRPRPQWIPRP | 0.00701 |
| RRIRYRPPRLPRPRPRPQWSPRP | -0.0453 |
| RRIRYRPPRLPRPRPRPQWTPRP | -0.0155 |
| RRIRYRPPRLPRPRPRPQYFPRP | -1.64 |
| RRIRYRPPRLPRPRPRPRAAPRP | -0.0447 |
| RRIRYRPPRLPRPRPRPRAEPRP | -0.162 |
| RRIRYRPPRLPRPRPRPRCDPRP | -0.207 |
| RRIRYRPPRLPRPRPRPRCGPRP | -0.0223 |
| RRIRYRPPRLPRPRPRPRCPPRP | -0.167 |
| RRIRYRPPRLPRPRPRPRDDPRP | -0.241 |
| RRIRYRPPRLPRPRPRPRDVPRP | -0.0023 |
| RRIRYRPPRLPRPRPRPRKEPRP | 0.00543 |
| RRIRYRPPRLPRPRPRPRKWPRP | 0.149 |
| RRIRYRPPRLPRPRPRPRLCPRP | -0.0154 |

| Sequence | shrunken log2 fold change |
| --- | --- |
| RRIRYRPPRLPRPRPRPRMFPRP | -0.306 |
| RRIRYRPPRLPRPRPRPRMLPRP | -1.08 |
| RRIRYRPPRLPRPRPRPRQLPRP | -0.0472 |
| RRIRYRPPRLPRPRPRPRQQPRP | 0.226 |
| RRIRYRPPRLPRPRPRPRQYPRP | 0.0153 |
| RRIRYRPPRLPRPRPRPRRNPRP | -0.268 |
| RRIRYRPPRLPRPRPRPRSFPRP | -0.0868 |
| RRIRYRPPRLPRPRPRPRTDPRP | -0.0428 |
| RRIRYRPPRLPRPRPRPRTTPRP | -0.011 |
| RRIRYRPPRLPRPRPRPRVRPRP | 0.175 |
| RRIRYRPPRLPRPRPRPRWSPRP | -0.225 |
| RRIRYRPPRLPRPRPRPRYDPRP | -0.21 |
| RRIRYRPPRLPRPRPRPRYNPRP | -0.339 |
| RRIRYRPPRLPRPRPRPSANPRP | -0.0919 |
| RRIRYRPPRLPRPRPRPSCAPRP | -0.921 |
| RRIRYRPPRLPRPRPRPSDGPRP | -0.327 |
| RRIRYRPPRLPRPRPRPSGWPRP | -0.00312 |
| RRIRYRPPRLPRPRPRPSGYPRP | -0.714 |
| RRIRYRPPRLPRPRPRPSHLPRP | -0.286 |
| RRIRYRPPRLPRPRPRPSHQPRP | -0.594 |
| RRIRYRPPRLPRPRPRPSIAPRP | -0.216 |
| RRIRYRPPRLPRPRPRPSINPRP | -0.39 |
| RRIRYRPPRLPRPRPRPSLCPRP | -0.109 |
| RRIRYRPPRLPRPRPRPSMGPRP | -0.613 |
| RRIRYRPPRLPRPRPRPSNDPRP | -0.29 |

| Sequence | shrunken log2 fold change |
| --- | --- |
| RRIRYRPPRLPRPRPRPSNHPRP | -0.29 |
| RRIRYRPPRLPRPRPRPSRCPRP | -0.154 |
| RRIRYRPPRLPRPRPRPSRDPRP | 0.0382 |
| RRIRYRPPRLPRPRPRPSRRPRP | 0.0397 |
| RRIRYRPPRLPRPRPRPSRSPRP | 0.134 |
| RRIRYRPPRLPRPRPRPSRYPRP | -0.122 |
| RRIRYRPPRLPRPRPRPSTAPRP | -0.0926 |
| RRIRYRPPRLPRPRPRPSTLPRP | -0.853 |
| RRIRYRPPRLPRPRPRPSVCPRP | -0.769 |
| RRIRYRPPRLPRPRPRPSWDPRP | -0.429 |
| RRIRYRPPRLPRPRPRPSYDPRP | -0.442 |
| RRIRYRPPRLPRPRPRPTADPRP | -0.119 |
| RRIRYRPPRLPRPRPRPTAGPRP | 0.111 |
| RRIRYRPPRLPRPRPRPTGKPRP | 0.019 |
| RRIRYRPPRLPRPRPRPTHIPRP | -1.04 |
| RRIRYRPPRLPRPRPRPTIHPRP | -1.2 |
| RRIRYRPPRLPRPRPRPTLTPRP | -0.0404 |
| RRIRYRPPRLPRPRPRPTLVPRP | -0.0641 |
| RRIRYRPPRLPRPRPRPTLWPRP | 0.31 |
| RRIRYRPPRLPRPRPRPTMNPRP | -0.446 |
| RRIRYRPPRLPRPRPRPTNEPRP | -0.586 |
| RRIRYRPPRLPRPRPRPTNMPRP | -0.541 |
| RRIRYRPPRLPRPRPRPTNVPRP | -0.868 |
| RRIRYRPPRLPRPRPRPTQAPRP | -0.00154 |
| RRIRYRPPRLPRPRPRPTQVPRP | 0.188 |
